Numbering of substitutions follows the chain as printed.
B1: Gαs-Gαi-13 (SEQ ID NO: 5) (other)
chain: MGCLGNSKTEDQRNEEKAQREANKKIEKQLQKDKQVYRATHRLLLLGAGESGKSTIVKQMRILHVNGFNGEGGEEDVPDYASNSDGEKATKVQDIKNNLKEAIETIVAAMSNLVPPVELANPENQFRVDYILSVMNVPNFDFPPEFYEHAKALWEDEGVRACYERSNEYQLIDCAQYFLDKIDVIKQADYVPSDQDLLRCRVLTSGIFETKFQVDKVNFHMFDVGGQRDERRKWIQCFNDVTAIIFVVASSSYNMVIREDNQTNRLQEALNLFKSIWNNRWLRTISVILFLNKQDLLAEKVLAGKSKIEDYFPEFARYTTPEDATPEPGEDPRVTRAKYFIRDEFLRISTASGDGRHYCYPHFTCAVDTENIRRVFNDCRDVIIKNNLKDCGLF
B2: Gαs-Gαz-13 (SEQ ID NO: 6) (other)
chain: B1 chain with K385Q, D390Y, C391I, F394C
B3: Gαs-Gα15-13 (SEQ ID NO: 7) (other)
chain: MGCLGNSKTEDQRNEEKAQREANKKIEKQLQKDKQVYRATHRLLLLGAGESGKSTIVKQMRILHVNGFNGEGGEEDVPDYASNSDGEKATKVQDIKNNLKEAIETIVAAMSNLVPPVELANPENQFRVDYILSVMNVPNFDFPPEFYEHAKALWEDEGVRACYERSNEYQLIDCAQYFLDKIDVIKQADYVPSDQDLLRCRVLTSGIFETKFQVDKVNFHMFDVGGQRDERRKWIQCFNDVTAIIFVVASSSYNMVIREDNQTNRLQEALNLFKSIWNNRWLRTISVILFLNKQDLLAEKVLAGKSKIEDYFPEFARYTTPEDATPEPGEDPRVTRAKYFIRDEFLRISTASGDGRHYCYPHFTCAVDTENIRRVFNDCRDSVLARYLDEINLL

Experiments:
[1] = target: sweet receptor heterodimer (T1 R2/T1 R3); test: cell-based or functional assay
[2] = target: T1, M2 muscarinic acetylcholine receptor (M2AchR), rat (rat, UniProt P10980 1-466); test: cell-based or functional assay
T1 sequence (looked up): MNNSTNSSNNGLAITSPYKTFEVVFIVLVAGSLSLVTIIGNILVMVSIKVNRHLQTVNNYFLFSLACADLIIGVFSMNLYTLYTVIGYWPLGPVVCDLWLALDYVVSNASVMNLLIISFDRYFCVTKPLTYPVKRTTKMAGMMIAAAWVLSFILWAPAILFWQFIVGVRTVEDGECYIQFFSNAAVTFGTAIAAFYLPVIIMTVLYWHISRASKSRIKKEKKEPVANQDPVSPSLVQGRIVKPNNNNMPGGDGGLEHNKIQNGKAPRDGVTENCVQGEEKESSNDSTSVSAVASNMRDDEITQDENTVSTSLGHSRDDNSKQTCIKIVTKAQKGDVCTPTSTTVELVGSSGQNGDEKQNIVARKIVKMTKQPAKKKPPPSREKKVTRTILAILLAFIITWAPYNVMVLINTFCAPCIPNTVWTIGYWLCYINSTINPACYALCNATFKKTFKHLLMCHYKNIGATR

Binder | increase in SEAP activity (5 mM saccharin) [1] [fold] | increase in SEAP activity in response to 10 uM acetylcholine (CRE-SEAP reporter, HEK-293) [2] [fold] | increase in SEAP activity, cells transiently expressing the chimera (10 uM acetylcholine) [2] [fold] | increase in SEAP activity in response to the 10 uM acetylcholine ligand [2] [fold]
B1 | ~2 | 10 | ~10 | –
B2 | – | – | – | ~2
B3 | – | – | – | ~2
